Results on one molecule are retold here after patent publication US12723100.

For assay [1], the target named is full-length human Nectin-4 on cells (human) (UniProt Q96NY8). The assay can be described thus: flow cytometry, CHO-Nectin-4 cells.
The target is the same in assay [2]. The assay can be described thus: flow cytometry, SKBR3 cells (endogenous Nectin-4).
For assay [3] the target is unchanged. The assay can be described thus: flow cytometry competition on CHO-Nectin-4 cells; competitor biotinylated human Nectin-1-His.
The target in assay [4] is human recombinant Nectin-4 protein (extracellular domain) (human) (UniProt Q96NY8). The assay can be described thus: ELISA, recombinant human Nectin-4 coated on plate.
Assay [5] concerns the target full-length human Nectin-4 on cells (human) (UniProt Q96NY8). The assay can be described thus: cell-based or functional assay.

B1: Positive Control 1 (PC1), in-house Nectin-4-specific antibody based on Enfortumab (AGS-22 M6) (antibody, INN chains, looked up, V domains shown)
VH: EVQLVESGGGLVQPGGSLRLSCAASGFTFSSYNMNWVRQAPGKGLEWVSYISSSSSTIYYADSVKGRFTISRDNAKNSLSLQMNSLRDEDTAVYYCARAYYYGMDVWGQGTTVTVSS
VL: DIQMTQSPSSVSASVGDRVTITCRASQGISGWLAWYQQKPGKAPKFLIYAASTLQSGVPSRFSGSGSGTDFTLTISSLQPEDFATYYCQQANSFPPTFGGGTKVEIKR
For B1, the 50% effective concentration (EC50) turned out to be 0.04 nM in assay [1], 0.07 nM in assay [2], 0.16 nM in assay [3] and 0.34 nM in assay [4]. Besides, in assay [5], the Endocytosis EC50 (cell killing with MMAF-conjugated Fab anti-hFc), Nectin-4-CHO cells was 0.33 nM. This molecule displayed an Endocytosis EC50 (cell killing with MMAF-conjugated Fab anti-hFc), SKBR3 cells in assay [5] of 0.39 nM.
